Measurements reported in patent publication US20070092444A1, “Inhibition of inward sodium currents in cancer” (priority 2003, published 2007).
Where two headings read alike, the source gives them in different places.

Tests used:
[1] = molecular target: T1, ASIC1 (recombinant: in vitro translated in proteoliposomes, expressed in Xenopus oocytes, reconstituted in planar lipid bilayers) (UniProt P78348); assay: cell-based or functional assay
T1 sequence (looked up): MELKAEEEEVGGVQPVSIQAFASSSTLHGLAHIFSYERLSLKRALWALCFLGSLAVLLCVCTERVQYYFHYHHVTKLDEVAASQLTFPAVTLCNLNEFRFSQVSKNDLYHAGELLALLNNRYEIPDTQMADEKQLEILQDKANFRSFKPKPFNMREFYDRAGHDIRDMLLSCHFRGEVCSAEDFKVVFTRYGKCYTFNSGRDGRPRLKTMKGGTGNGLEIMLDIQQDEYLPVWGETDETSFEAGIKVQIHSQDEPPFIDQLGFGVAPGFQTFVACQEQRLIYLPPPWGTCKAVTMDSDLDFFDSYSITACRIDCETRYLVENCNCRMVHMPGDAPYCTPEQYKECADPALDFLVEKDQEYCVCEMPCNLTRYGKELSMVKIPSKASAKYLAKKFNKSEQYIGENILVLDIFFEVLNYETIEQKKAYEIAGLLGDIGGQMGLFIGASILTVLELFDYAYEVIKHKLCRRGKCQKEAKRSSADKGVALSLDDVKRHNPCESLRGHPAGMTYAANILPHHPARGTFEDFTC

[2] = molecular target: ASIC1+ASIC2+γ-hENaC heteromeric channel (co-expressed in Xenopus oocytes; oocyte membrane vesicles in planar lipid bilayers) (human) (UniProt P78348); assay: cell-based or functional assay
ASIC1 [3] = molecular target: T2, ASIC1 (Homo sapiens, UniProt P78348); assay: Acid-activated currents in voltage-clamped Xenopus oocytes expressing ASIC1; type: cell-based; conditions: 1 nM peptide (FIG. 20); pHo 4.0; −60 mV
T2 sequence (P78348 1-528): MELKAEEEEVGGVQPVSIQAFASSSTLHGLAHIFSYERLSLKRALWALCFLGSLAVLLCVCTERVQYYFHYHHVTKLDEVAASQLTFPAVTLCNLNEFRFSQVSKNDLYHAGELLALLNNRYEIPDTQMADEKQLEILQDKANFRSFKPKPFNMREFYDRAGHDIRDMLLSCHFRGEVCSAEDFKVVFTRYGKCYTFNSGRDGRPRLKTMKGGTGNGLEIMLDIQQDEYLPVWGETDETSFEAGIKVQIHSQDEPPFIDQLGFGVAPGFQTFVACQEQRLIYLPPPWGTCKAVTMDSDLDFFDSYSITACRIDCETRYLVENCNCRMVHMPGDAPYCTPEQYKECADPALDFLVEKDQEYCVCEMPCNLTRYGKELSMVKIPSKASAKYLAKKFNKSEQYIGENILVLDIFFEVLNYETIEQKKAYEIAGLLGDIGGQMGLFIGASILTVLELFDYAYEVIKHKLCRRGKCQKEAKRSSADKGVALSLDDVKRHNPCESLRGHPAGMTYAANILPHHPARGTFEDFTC
Description: FIGS. 8A-C show acid-activated ASIC currents in Xenopus oocytes. ASIC 2 (FIG. 8A), ASIC1 (FIG. 8B) and the combination of ASIC2 and ASIC1 (FIG. 8C) were examined. […] Each oocyte served as its own control.
(§1) Membrane potential was held at −60 mV, and the pHo was step decreased to 4.0 for 10 s, and then returned to 7.4 for 30 s before repeating the sequence.
Xenopus oocytes were used to express ASIC1 and ASIC2 mRNA individually and in combination. Oocyte preparation, cRNA injection, and two-electrode voltage clamp recordings were performed as described (33,67-69).
as §1

U87-MG cells = assay: Transwell Migration Assay, U87-MG cells; type: cell-based, human; conditions: 3 h, vitronectin
[4] = system: inward Na^+ currents in SK-MG cells; assay: Whole-cell patch clamp, SK-MG glioma cells; type: cell-based, human; conditions: 10 nM peptide
Description: FIGS. 7A-7C show representative whole-cell patch clamp recordings.
The amiloride-sensitive inward Na^+ currents are measured regardless of whether ASIC2 is absent or present (FIGS. 7A-D). Whole-cell patch clamp recordings were obtained from U87-MG, SK-MG, and D54-MG glioma cells in the basal state. […] This inhibition of the inward current occurred regardless of the absence or presence of ASIC2 mRNA (FIG. 7D) (as detected by RT-PCR as described above).
(§2) FIG. 19A show representative whole-cell patch clamp recordings of ZR-75-1 and SKMEL-2 cells in the basal state.

[5] = system: constitutive amiloride-sensitive inward Na^+ current in high-grade glioma (GBM) cells; assay: Whole-cell patch clamp, freshly resected and primary cultured high-grade glioma (Grade III/IV, GBM) cells; type: cell-based, human; conditions: 10 nM peptide; freshly resected GBM
Description: FIGS. 2A-C show representative whole-cell patch clamp recordings.
FIGS. 4A and B show summary I-V curves of freshly resected normal astrocytes (FIG. 4A) and GBM cells (FIG. 4B). Inward currents (−60 mV) were −7.5±1.2 pA (normal) and −43.8±14.5 pA (GBM). Outward currents (+40 mV) averaged 42.2±2.4 pA and 47.2±12.5 pA for normal and GBMs, respectively. FIGS. 4C and D show summary amiloride-sensitive (difference) currents of freshly resected normal astrocytes (FIG. 4C) and GBM cells (FIG. 4D).
A constitutive amiloride-sensitive inward Na^+ conductance has been reported in human high-grade glioma cells. […] These inward Na^+ currents were not present in normal astrocytes or in low-grade astrocytomas (e.g., pilocytic astrocytomas). However, the composition of the channels responsible for the inward Na^+ conductance has not been reported. FIGS. 2A-C show representative whole cell patch-clamp measurements on tissue derived from a freshly resected human glioblastoma multiforme (GBM; WHO grade IV), normal astrocytes obtained from patients undergoing surgery for intractable epilepsy, and primary cultures of different grade glial tumors. […] However, there was no significant inward Na^+ current in normal astrocytes and Grades I and II astrocytoma cells (FIG. 2C).
Summary current-voltage (I-V) curves are presented for normal astrocytes and GBM cells in FIG. 4A and FIG. 4B, respectively, while difference I-V curves for normal astrocytes and GBM cells are presented in FIG. 4C and FIG. 4D, respectively. The GBM cells are depolarized by an average of 31 mV compared to the normal astrocytes under these recording conditions. The depolarized zero current membrane potential is due to the presence of an enhanced Na^+ conductance as is shown in the difference I-V curves.
as §2

primary GBM cultures = assay: Transwell Migration Assay, primary GBM cultures; type: cell-based, human; conditions: 3 h, vitronectin
Description: Approximately 10,000 cells were added to the upper side of a filter insert perforated with 5-8 μm holes, and induced to migrate through these pores toward the extracellular matrix protein vitronectin (coated on the underside of the filter). PcTX1 or control scrambled PcTX1 peptide was added to each compartment at the same time as the cells. BSA-coated filter inserts were used as negative controls. After 3 h, cells were fixed with 4% paraformaldehyde, and subsequently stained with crystal violet. Cells were counted on an inverted microscope, averaging five fields per Transwell chamber. Four-to-ten chambers were used under each condition.

D54-MG glioma cells = assay: Transwell Migration Assay, D54-MG cells; type: cell-based, human; conditions: 3 h, vitronectin
Description: 5-8 μm polycarbonate Transwell filters were coated on the lower surface with or vitronectin ([…] in PBS). […] of D54MG cells (400,000 cells/ml were added to the upper chamber), in the presence or absence of benzamil, and migration was allowed to proceed for 3 hours. Migration was determined according to standard procedures (120). N-amidino-3,5-diamino-pyrazinecarboxamide was used as a control.
To begin to investigate the role of the inward Na^+ conductance in the invasive behavior of tumor cells, a Transwell Migration Assay was used to assess cell chemotaxis and invasiveness (FIG. 17). D54-MG cells were plated on the upper side of a filter insert perforated with 5-8 μm holes, and induced to migrate through these pores toward the extracellular matrix protein vitronectin (coated on the underside of the filter). Benzamil, at 10, 20, 50, or 100 μM, was added to both chambers at time 0. After a 3 h migration time, cells were fixed, stained with crystal violet, and counted. BSA-coated filter inserts were used as negative controls. […]
Approximately 10,000 cells were added to the upper side of a filter insert perforated with 5-8 μm holes, and induced to migrate through these pores toward the extracellular matrix protein vitronectin (coated on the underside of the filter). […] Cells were counted on an inverted microscope, averaging five fields per Transwell chamber. […]

ASIC1 [6] = molecular target: T2, ASIC1; assay: Wild-type ASIC1 in planar lipid bilayers, single channel recording; type: biochemical; conditions: PKC isoforms
Description: An expanded time scale is shown below each trace.
Wild-type ASIC1 incorporated into planar lipid bilayers at neutral pH or at acidic extracellular pH was also examined.
as §1
Control single channel were record for ASIC1 containing channels in bilayers bathed with symmetrical 100 mM NaCl, 10 mM MOPS, pH 6.2. Holding potential was +100 mV referred to the virtually grounded trans chamber. For illustration purposes, data shown were digitally filtered at 100 Hz using pCLAMP software (Axon Instruments) subsequent to acquisition of the analog signal filtered at 300 Hz with an 8-pole Bessel filter before acquisition at 1 ms per point. An expanded time scale is shown below each trace (FIG. 21).
Representative dwell-time histograms were constructed following the events analyses performed using pCLAMP software (Axon Instruments) on single channel recordings of 10 min in duration filtered at 300 Hz with an 8-pole Bessel filter before acquisition at 1 ms per point using pCLAMP software and hardware. The event detection thresholds were 50% in amplitude of transition between closed and open states, and 3 ms in duration. Closed and open time constants shown were determined by fitting the closed and open time histograms to the probability density function (Sigworth and Sine, 1987), and using the Simplex least square routine of pSTAT. Number of bins per decade in all histograms was 16.

[7] = molecular target: T1, ASIC1 (recombinant: in vitro translated in proteoliposomes, expressed in Xenopus oocytes, reconstituted in planar lipid bilayers); assay: cell-based or functional assay; remark: listed apart in the source
[8] = molecular target: T1, ASIC1 (recombinant: in vitro translated in proteoliposomes, expressed in Xenopus oocytes, reconstituted in planar lipid bilayers)

Q: For PKCε (enzyme), which reversal of the PKCβI+PKCβII inhibition of ASIC1 activity in bilayers (PKCε and PKCζ in combination) [1] is on record?
A: 5 fold excess

Q: Syntaxin 1A GST fusion protein was tested. Which decrease in channel open probability (Po) in planar lipid bilayers, 25 µM syntaxin 1A in the cis chamber [2] did it give?
A: 40%

Q: Which results are given for “scrambled PcTX1 control peptide: 40mer scrambled control peptide having the same amino acid content as PcTX1; SEQ ID NO: 3 (VLEPCKWGFRTCKGEDINCPKVWTRERSKCDCEVKRCHGP; control peptide)”?
A: block of acid-induced inward currents (ASIC1 [3]): without effect; diminished ability to migrate through the filter (U87-MG cells): without effect; block of constitutive inward Na^+ current [4]: unaffected; block of constitutive inward Na^+ current [5]: unaffected; diminished ability to migrate through the filter (primary GBM cultures): without effect; diminished ability to migrate through the filter (D54-MG glioma cells): without effect

B1: PKCε: PKC isoform (protein, UniProt Q02156 1-737, looked up)
Protein kinase C epsilon type: MVVFNGLLKIKICEAVSLKPTAWSLRHAVGPRPQTFLLDPYIALNVDDSRIGQTATKQKTNSPAWHDEFVTDVCNGRKIELAVFHDAPIGYDDFVANCTIQFEELLQNGSRHFEDWIDLEPEGRVYVIIDLSGSSGEAPKDNEERVFRERMRPRKRQGAVRRRVHQVNGHKFMATYLRQPTYCSHCRDFIWGVIGKQGYQCQVCTCVVHKRCHELIITKCAGLKKQETPDQVGSQRFSVNMPHKFGIHNYKVPTFCDHCGSLLWGLLRQGLQCKVCKMNVHRRCETNVAPNCGVDARGIAKVLADLGVTPDKITNSGQRRKKLIAGAESPQPASGSSPSEEDRSKSAPTSPCDQEIKELENNIRKALSFDNRGEEHRAASSPDGQLMSPGENGEVRQGQAKRLGLDEFNFIKVLGKGSFGKVMLAELKGKDEVYAVKVLKKDVILQDDDVDCTMTEKRILALARKHPYLTQLYCCFQTKDRLFFVMEYVNGGDLMFQIQRSRKFDEPRSRFYAAEVTSALMFLHQHGVIYRDLKLDNILLDAEGHCKLADFGMCKEGILNGVTTTTFCGTPDYIAPEILQELEYGPSVDWWALGVLMYEMMAGQPPFEADNEDDLFESILHDDVLYPVWLSKEAVSILKAFMTKNPHKRLGCVASQNGEDAIKQHPFFKEIDWVLLEQKKIKPPFKPRIKTKRDVNNFDQDFTREEPVLTLVDEAIVKQINQEEFKGFSYFGEDLMP
Q: B1 was tested. Which “effect on ASIC1 activity in bilayers” value (ASIC1 [6]) did it give?
A: Neither PKCε, PKCζ, nor their combination had any effect

B2: PKCζ (enzyme, UniProt Q05513 1-592, looked up, species assumed)
Protein kinase C zeta type: MPSRTGPKMEGSGGRVRLKAHYGGDIFITSVDAATTFEELCEEVRDMCRLHQQHPLTLKWVDSEGDPCTVSSQMELEEAFRLARQCRDEGLIIHVFPSTPEQPGLPCPGEDKSIYRRGARRWRKLYRANGHLFQAKRFNRRAYCGQCSERIWGLARQGYRCINCKLLVHKRCHGLVPLTCRKHMDSVMPSQEPPVDDKNEDADLPSEETDGIAYISSSRKHDSIKDDSEDLKPVIDGMDGIKISQGLGLQDFDLIRVIGRGSYAKVLLVRLKKNDQIYAMKVVKKELVHDDEDIDWVQTEKHVFEQASSNPFLVGLHSCFQTTSRLFLVIEYVNGGDLMFHMQRQRKLPEEHARFYAAEICIALNFLHERGIIYRDLKLDNVLLDADGHIKLTDYGMCKEGLGPGDTTSTFCGTPNYIAPEILRGEEYGFSVDWWALGVLMFEMMAGRSPFDIITDNPDMNTEDYLFQVILEKPIRIPRFLSVKASHVLKGFLNKDPKERLGCRPQTGFSDIKSHAFFRSIDWDLLEKKQALPPFQPQITDDYGLDNFDTQFTSEPVQLTPDDEDAIKRIDQSEFEGFEYINPLLLSTEESV
Q: What does the source list for B2?
A: reversal of the PKCβI+PKCβII inhibition of ASIC1 activity in bilayers (PKCε and PKCζ in combination) [7]: 5 fold excess; ASIC1 activity in planar lipid bilayers [8]: Neither PKCε, PKCζ, nor their combination had any effect on ASIC1 activity in bilayers.; in vitro phosphorylation of ASIC1 [8]: PKC holoenzyme, PKCβI, PKCβII, PKCδ, PKCε, and PKCζ phosphorylated ASIC1 in vitro.; effect on ASIC1 activity in bilayers (ASIC1 [6]): Neither PKCε, PKCζ, nor their combination had any effect
